The nature of this data set: yeast display, Sf9 membrane polyspecificity reagent, FACS + sequencing; frameworks hold sequencing errors. The gist of the method: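 Galactose induction of a Saccharomyces cerevisiae BJ5465 synthetic nanobody display library ran 36–48 hours. The cells were then stained for 1 hour at 4 °C with 10% biotinylated, detergent-solubilized Sf9 membrane reagent, pulled down on streptavidin microbeads and FACS-sorted into low and high (top ~1%) gates on expression and reagent-binding fluorescence. Labels for polyreactivity follow the gate of origin.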
Consider “QVQLVESGGGLVQAGGSLRLSCAASGSTFSFNDMGGYRPAPGKERELVADISWSGDTTYADSVKGRFTISRDNAKNTVYLQMNSLIPEDSAVYYCNAEGFSISFYGNWVVQWEFDYWGQGTQVTVSS”, for which the “polyreactivity (PSR sort gate)” value was “high polyreactivity”.
In the case of “QVQLVESGGGLVQAGGSLRLSCAASGSTFSGNAMGWYRQAPGKEREMVAAITSSRGSTYYADSVKGRFTISRDHAQNTVDLQLNSLKPEDTAVYYCNRYSGGRWYPEYYYWGQGTQVTVSS”, the “polyreactivity (PSR sort gate)” value is reported as “high polyreactivity”.
For “QVQLVESGGGLVQAGGSLRLSCAASGSTFSGNTMGWYRQAPGKERELVADINWSSGSTYYADSVKGRFTISRDNAKNTVYLQMNSLKPEDTAVYYCAAVEPFYDFDYWGQGTQVTVSS”, the “polyreactivity (PSR sort gate)” value is listed as “low polyreactivity”.
In the case of “QVQLVESGGGLVQAGGSLRLSCAASGSTFSGYAMGWYRQAPGKEMEFVATISISGGSTYYADSVKGRFTISRDNAKNTVYLQMNSLKPEDTAVYYCNADYYFSWGSIEDYWGQGTQVTVSS”, the “polyreactivity (PSR sort gate)” value is listed as “low polyreactivity”.
For the sequence “QVQLVESGGGLVQAGGSLRLSCAASGSTFSGYAMGWYRQAPGKERELVAAISRRGTSTYYADSVKGRFTISRDNAKNTVYLQMNSLKPEDTAVYYCAARPSGYVIGGYGYWGQGTQVTVSS”, the “polyreactivity (PSR sort gate)” value is listed as “high polyreactivity”.
For “QVQLVESGGGLVQAGGSLRLSCAASGSTFSGYAMGWYRQAPGKERELVAAITRSGGSTYYADSVKGRFTISRDNAKNTVYLQMNSLKPEDTAVYYCNVYFGYWVPTSTYYWSWDDYWGQGTQVTVSS”, the “polyreactivity (PSR sort gate)” value is recorded as “low polyreactivity”.
Take “QVQLVESGGGLVQAGGSLRLSCAASGSTFSHYTMGSYRQAAGKERELVAAITRSGGSTYYADSVKGRFTISRDNAKNTVYLQMNSLKTEDSAVYYSAATRHWNILRYDYWGQGTQVTVSS”: the “polyreactivity (PSR sort gate)” value was “low polyreactivity”.
“QVQLVESGGGLVQAGGSLRLSCAASGSTFSINAMGWYRQAPGKERELVAAITWRGTRTYYADSVKGRFTISRDNAKNTVYLQMNSLTPEDTAVYYCAATGSGQASYYYWGQGTQVTVSS”: the “polyreactivity (PSR sort gate)” value is “high polyreactivity”.
As for “QVQLVESGGGLVQAGGSLRLSCAASGSTFSKNTMGWYRQAPGKERELVAAITTRGSSTYYADSVKGRFTISRDNAKNTVYLQMNSLKPEDTAVYYCAAGRYGWKHVWYYYWGQGTQVTVSS”, the “polyreactivity (PSR sort gate)” value was “high polyreactivity”.
In the case of “QVQLVESGGGLVQAGGSLRLSCAASGSTFSLYDMGWYRQAPGKERELVAAIRWSGDSTYYADSVKGRFTISRDNAKNTVYLQMNSLKPEDTAVYYCAKDQSSPWDIQFLVYGGYEYWGQGTQVTVSS” it was “low polyreactivity”.
For the sequence “QVQLVESGGGLVQAGGSLRLSCAASGSTFSNNAMAWYRQAPGKERELVAGINSSGGRTYYADSVKGRFTISRDNAKNTVYLQMISLKPEDTAVYYCAAESRYYYELGYWGQGTQVTVSS”, the “polyreactivity (PSR sort gate)” value is reported as “high polyreactivity”.
Turning to “QVQLVESGGGLVQAGGSLRLSCAASGSTFSPNAMGWYRQAPGKERELVAAITGGGSTYADSVKGRFTISRDNAKNTVYLQMNSLKPEDTAVYYCNRDYRSDLGYADQSWTDQYDYWGQGTQVTVSS”, the “polyreactivity (PSR sort gate)” value is given as “low polyreactivity”.
Turning to “QVQLVESGGGLVQAGGSLRLSCAASGSTFSPNAMGWYRQAPGKERELVAAITYRGANTYYADSVKGRFTISRDNAKNTVYLQMNSLKPEDTAVYYCAAEYAYHHVGFGYWGQGTLVTVSS”, the “polyreactivity (PSR sort gate)” value is “low polyreactivity”.
For “QVQLVESGGGLVQAGGSLRLSCAASGSTFSPNVMGWYRQAPGKERELVAAISSSTGSTNYADSVKGRFTISRDNAKNTVYLQMNSLKPEDTAVDYCAVDPYVHWTTKLYDYWGQGTLVTVSS”, the “polyreactivity (PSR sort gate)” value is recorded as “low polyreactivity”.
“QVQLVESGGGLVQAGGSLRLSCAASGSTFSPYAMGGSRQAPGKEREVVAAINSGSSTNYADSVKGRFTISRDNAKNTVYFQMNSLKPEDTAVYYCAADGQLPPRGILASWEFDYWGQGTQVTVSS”: the “polyreactivity (PSR sort gate)” value is “low polyreactivity”.
Then “QVQLVESGGGLVQAGGSLRLSCAASGSTFSPYAMGWYRQAPGKEREIVAAISWGDGSTYYADSVKGRFTISRDNAKNTVYLQINSLKPEDTAVYYCNVKPSARGAPLYDYWGQGTQVTVSS”, with “high polyreactivity”; and “QVQLVESGGGLVQAGGSLRLSCAASGSTFSPYAMGWYRQSPGKEMELVAVITSSGGDTYYADSVKGRFTISRDNAKNTVYLQMNSLKPEDTAVYYCAADWWVLGQLWFDYWGQGTQVTVSS”, with “low polyreactivity”; and “QVQLVESGGGLVQAGGSLRLSCAASGSTFSPYDMGWYRQAPGKERELVAAITYRGGSTYYADSVKGRFTISRDNAKNTVYLQMNSLKPEDTAVYYCAAEIYQYSYGGTGWTLDWGQGTQVTVSS”, with “low polyreactivity”.
Consider “QVQLVESGGGLVQAGGSLRLSCAASGSTFSQNAMGWYRQAPGKERELVAAITSGGITYYADSVKGRFTISRDNAKNTVYLQMNSLKPEDTAVYYCAAVTPSGAHRSAYHPISDYWGQGTQVTVSS”, for which the “polyreactivity (PSR sort gate)” value is on record as “low polyreactivity”.
As to “QVQLVESGGGLVQAGGSLRLSCAASGSTFSRNAMGWSRQAPGKERELVAAITRSGGSTYYADSVKGRFSISRDNAKNTVYLQMNSLKPEDTAVYYCAVLSVRRSYNYWGQGTQVTVSS”, the “polyreactivity (PSR sort gate)” value is reported as “high polyreactivity”.
Regarding “QVQLVESGGGLVQAGGSLRLSCAASGSTFSRYAMGWYRPAPGKERELVAAISRSGGTTYYADSVKGRFTISRDNAKNTVYLQMNSLKPEDTAVYYCNARGRYEYGYWGQGTQVTVSS”, the “polyreactivity (PSR sort gate)” value is listed as “high polyreactivity”.
As for “QVQLVESGGGLVQAGGSLRLSCAASGSTFSRYAMGWYRQAPGKEMELVAAISWSGGSTYYADSVKGRFTISRDNAKNTVYLQMNSLKPEDTAVYYCAAYTYSFRANHDYWGQGTQVTVTS”, the “polyreactivity (PSR sort gate)” value is recorded as “high polyreactivity”.
In the case of “QVQLVESGGGLVQAGGSLRLSCAASGSTFSRYAMGWYRQAPGKERELVAAIRRSAGSTYYADSVKGRFTISRDNAKNTVYLQMNSLKPEDTAVYYCAAAGRYDYWGQGTQVTVSS”, the “polyreactivity (PSR sort gate)” value is listed as “high polyreactivity”.
For “QVQLVESGGGLVQAGGSLRLSCAASGSTFSRYAMGWYRQAPGKERELVAAISRSGGSTYYADSVKGRFTISRDNAKNTVYLQMNSLKPEDTAVYYCAKVTTYVSAWQGNGYWGQGTQVTVSS”, the “polyreactivity (PSR sort gate)” value is reported as “high polyreactivity”.
Consider “QVQLVESGGGLVQAGGSLRLSCAASGSTFSRYAMGWYRQAPGKERELVAAISSDGTTYYADSVKGRFTISRDNAKNTVYLQMNSLKPEDTAVYYCAKRGYYRSRRYDYWGQGTQVTVSS”, for which the “polyreactivity (PSR sort gate)” value was “high polyreactivity”.
In the case of “QVQLVESGGGLVQAGGSLRLSCAASGSTFSRYAMGWYRQAPGKVRELVAAISWGGNTYYADSVKGRFTISRDNAKNTVYLQMNSLKPEDTAVYYCNRYSKLYNTMDYWGQGTQVTVSS” it was “high polyreactivity”; in that of “QVQLVESGGGLVQAGGSLRLSCAASGSTFSRYTMGWYRQAPGKERELVAGISGIGGSTDYADSVKGRFTISRDNAKNTVYLQMNSLKPEDTAVYYCNAEYTASYSRGFWRYYYPFEYWGQGTQVTVSS”, “high polyreactivity”; in that of “QVQLVESGGGLVQAGGSLRLSCAASGSTFSSYAMGWYRQAPGKERELVAATYYADSVKGRFTISRDNAKNTVYLQMNSLKPEDTAVYYCNADNAYQGGKEYDYWGQGTQVTVSS”, “low polyreactivity”.
Take “QVQLVESGGGLVQAGGSLRLSCAASGSTFSSYVMGWYRQAPGKERELVAGITRGGRTYYADSVKGRFTISRDNAKNTVYLQMNSLKPEDTAVYYCAKDQGGVHELDYWGQGTQVTVSS”: the “polyreactivity (PSR sort gate)” value is reported as “low polyreactivity”.
On to “QVQLVESGGGLVQAGGSLRLSCAASGSTFSTNAMGWYRQAPGKERELVAAISRSGGRTYYADSVKGRFTISRDNAKNTVYLQMNSLKPEDTAVYYCNAVRRFASPSPHYYWGQGTQVTVSS”, for which the “polyreactivity (PSR sort gate)” value is given as “high polyreactivity”.
Consider “QVQLVESGGGLVQAGGSLRLSCAASGSTFSTNAMGWYRQAPGKERELVAAISRSGGSTYYADSVKGRFTISRDNAKNTFYLQMNSLKPEDTAVYYCARYSYRGTNVRYDYCGQGTQVTVSS”, for which the “polyreactivity (PSR sort gate)” value is “high polyreactivity”.
As for “QVQLVESGGGLVQAGGSLRLSCAASGSTFSTYAMGWYRQAPGKERELVAAITAGGGSTYYADSVKGRFTISRDNAKNTVYLQMNSLKPEDTAVYYCAARSYYRFGGGYWGQGTQVTVSS”, the “polyreactivity (PSR sort gate)” value was “high polyreactivity”.
Take “QVQLVESGGGLVQAGGSLRLSCAASGSTFSTYDMGWYRQAPGKEREFVAAISDSGGSTYYADSVKGRFTISRDNAKNTVYLQMNSLKPEDTAVYYCNATVVFVQYVDYDYWGQGTQVTVSS”: the “polyreactivity (PSR sort gate)” value is “low polyreactivity”.
Consider “QVQLVESGGGLVQAGGSLRLSCAASGSTFSVNAMGWYIQAPGKEREFVAAIRWPGGSTYYADSVKGRFTISRDNAKNTVYLQLNSLKPEDTAVYYCAARIKYRYDWGQGTQVTVSS”, for which the “polyreactivity (PSR sort gate)” value is “low polyreactivity”.
Consider “QVQLVESGGGLVQAGGSLRLSCAASGSTFSVYAMGWYRQAPGKERELVAAITWRGGTTYYADSVKGRFTISRDYAKNTVYLQMNSLKPEDTAVYYCNADWWRTLESDYWGQGTQVTVSS”, for which the “polyreactivity (PSR sort gate)” value was “low polyreactivity”.
In the case of “QVQLVESGGGLVQAGGSLRLSCAASGSTFSVYAMGWYRQAPGKERELVASISSSVGRTFYADSVKGRFTISRDNAKNTVYLQMNSLKPEDTAVYYCAARSYQVKEYDHWGQGTQVTVSS”, the “polyreactivity (PSR sort gate)” value was “high polyreactivity”.
In the case of “QVQLVESGGGLVQAGGSLRLSCAASGSTFSVYGMGWYRQAPGKERELVAAISGSGSRTYYADSVKGRFTISRDNAKNTVYLQMNSLKPEDTAVYYCAAVRRLLQGRTMYYWGQGTQVTVSS” it was “high polyreactivity”; in that of “QVQLVESGGGLVQAGGSLRLSCAASGSTFSYYAMGWDRQAPWKERELVAAITAGGGSTYYADSVKGRFTISRDNAKNTVYLQMNSLKPEDTAVYYCNADQIFGPALNLWKLDYWGQGTQVTVSS”, “low polyreactivity”.
Then “QVQLVESGGGLVQAGGSLRLSCAASGSTFSYYAMGWYRQAPGKEREFVAAISSSGGRTYYADSVKGRFTISRDNAKNTVYLQMNSLKPEDTAVYYCNAYYLAEYDYWGQGTQVTVSS”, with “high polyreactivity”; and “QVQLVESGGGLVQAGGSLRLSCAASGSTFSYYAMGWYRQAPGKERELVAAIRSDGGSTYYADSVKGRFTISRDNAKNTVYLQMNSLKPEDTAVYYCNAPYRRSAKFRRYGYDYWGQGTQVTVSS”, with “high polyreactivity”.

(Values after the nanobody polyreactivity screen of Harvey et al. (2022).)
